# Test results taken from PMC10378328, “Tissue Inhibitor of Metalloproteinases-1 Interacts with CD74 to Promote AKT Signaling, Monocyte Recruitment Responses, and Vascular Smooth Muscle Cell Proliferation” (Cells, 2023).
# B1: recombinant human TIMP-1 (tissue inhibitor of metalloproteinases-1) (natural protein)
# chain: not shown
# Molecular target: T1, N-terminal FLAG-tagged human CD74 (human, UniProt P04233 1-296)
# T1 sequence (looked up): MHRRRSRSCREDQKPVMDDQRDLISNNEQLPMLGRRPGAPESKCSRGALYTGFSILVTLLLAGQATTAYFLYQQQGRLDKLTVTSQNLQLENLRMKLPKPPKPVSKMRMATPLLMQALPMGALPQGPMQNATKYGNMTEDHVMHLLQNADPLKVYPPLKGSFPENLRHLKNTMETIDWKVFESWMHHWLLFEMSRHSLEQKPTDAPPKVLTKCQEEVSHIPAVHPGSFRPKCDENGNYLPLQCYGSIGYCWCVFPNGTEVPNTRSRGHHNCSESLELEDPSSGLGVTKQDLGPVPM
# Experiment: cell-based or functional assay
binder,measurement,value
B1,"arrest of MonoMac6 cells on a monolayer of human aortic endothelial cells under flow, TIMP-1 at 200 and 400 ng/mL, optimal concentration 200 ng/mL",2 fold
